± gives the standard deviation of the averaged measurements.
Test system: ATP
Assay: switch fluorescence ratio, 500 uM ATP over buffer (Cy3 cluster intensity, sum of 5 cycles each) (fold (ratio)); higher = stronger signal-on switching upon ATP binding; sequences stand for … in TCGTCGGCAGCGTCAGATGTGTATAAGAGACAGTTTTTTTTTTTTTTTTTTTTTTTTT…TC
Conditions: aptamer strand: ATP DNA aptamer (quencher-CACCTGGGGGAGTATTGCGGAGGAAGG + anchor), 100 nM annealed; ATP concentration: 500 uM
How it was run: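 Clusters with intensities outside 100-1000 RFU were excluded. The remaining Cy3-labelled switching-strand clusters on a modified Illumina MiSeq flow-cell had been annealed to 100 nM quencher-labelled ATP aptamer and imaged in selection buffer, then after 15 min with 500 uM ATP at 22 °C, for five cycles separated by NaOH stripping and re-annealing. The fluorescence ratio, averaged per switch-domain sequence, is each cluster's summed target-cycle Cy3 intensity over its summed buffer-cycle Cy3 intensity.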
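Further: ATP exposure 15 min at 22 °C before imaging.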

| Sequence | switch fluorescence ratio |
| --- | --- |
| GTGGGCGGCC | 0.99 ± 0.028 |
| GTGGGCGGGA | 1.07 ± 0.14 |
| GTGGGCGGGC | 1.02 ± 0.093 |
| GTGGGGACGG | 0.977 ± 0.053 |
| GTGGGGAGGG | 1 ± 0.016 |
| GTGGGGAGTG | 1.01 ± 0.045 |
| GTGGGGATCC | 1.025 ± 0.0046 |
| GTGGGGCGCG | 1.02 ± 0.038 |
| GTGGGGGAGA | 0.9868 ± 0.0059 |
| GTGGGGGATG | 1 ± 0.033 |
| GTGGGGGG | 0.999 ± 0.029 |
| GTGGGGGTGT | 1.05 ± 0.055 |
| GTGGGGGTTG | 0.976 ± 0.043 |
| GTGGGGTAGA | 1.05 ± 0.021 |
| GTGGGGTCAA | 0.9985 ± 0.0085 |
| GTGGGGTCGC | 0.978 ± 0.012 |
| GTGGGGTTTC | 0.977 ± 0.032 |
| GTGGGTAATT | 0.995 ± 0.033 |
| GTGGGTAGAG | 1 ± 0.057 |
| GTGGGTAGTG | 0.996 ± 0.038 |
| GTGGGTAGTT | 0.99 ± 0.076 |
| GTGGGTATAC | 1.01 ± 0.026 |

| Sequence | switch fluorescence ratio |
| --- | --- |
| GTGGGTCGTT | 1 ± 0.031 |
| GTGGGTGGTG | 1.015 ± 0.0046 |
| GTGGGTTCGG | 1 ± 0.031 |
| GTGGGTTTTT | 1.01 ± 0.032 |
| GTGGTAATTG | 0.972 ± 0.016 |
| GTGGTAGAGC | 0.991 ± 0.033 |
| GTGGTATCAC | 1 ± 0.011 |
| GTGGTCGGGT | 0.974 ± 0.044 |
| GTGGTCTGCC | 0.958 ± 0.0044 |
| GTGGTGCCAA | 1.01 ± 0.026 |
| GTGGTGGGGG | 0.992 ± 0.034 |
| GTGGTGTACT | 0.985 ± 0.0081 |
| GTGGTTCCAA | 0.9932 ± 0.0063 |
| GTGGTTCTTG | 0.99 ± 0.019 |
| GTGGTTGTGC | 0.97 ± 0.035 |
| GTGGTTTAAC | 1.04 ± 0.0087 |
| GTGGTTTGCT | 1.01 ± 0.013 |
| GTGGTTTGGA | 0.989 ± 0.031 |
| GTGGTTTGGG | 0.988 ± 0.06 |
| GTGGTTTTGG | 1 ± 0.035 |
| GTGTAAAAGC | 1.03 ± 0.011 |
| GTGTAAATTT | 0.991 ± 0.04 |

| Sequence | switch fluorescence ratio |
| --- | --- |
| GTGTAAGGGG | 0.9943 ± 0.0094 |
| GTGTAAGTGT | 0.9821 ± 0.0046 |
| GTGTAATTAG | 0.982 ± 0.035 |
| GTGTACTGGG | 0.993 ± 0.017 |
| GTGTACTTAC | 1.2 ± 0.022 |
| GTGTATCACG | 1.015 ± 0.0048 |
| GTGTATTTTG | 0.996 ± 0.014 |
| GTGTCAAAGA | 0.984 ± 0.02 |
| GTGTCTAGTA | 1 ± 0.02 |
| GTGTCTGGGA | 0.985 ± 0.024 |
| GTGTCTTTGA | 0.986 ± 0.055 |
| GTGTGACGGT | 0.949 ± 0.019 |
| GTGTGAGCGG | 0.9901 ± 0.0052 |
| GTGTGAGGTT | 0.989 ± 0.019 |
| GTGTGAGTGC | 1.06 ± 0.024 |
| GTGTGATGTT | 0.99 ± 0.042 |
| GTGTGCACGC | 1.05 ± 0.065 |
| GTGTGCAGTG | 0.954 ± 0.01 |
| GTGTGGAAGA | 1.019 ± 0.0054 |
| GTGTGGGAGG | 1.04 ± 0.028 |
| GTGTGGGAGT | 0.9963 ± 0.0016 |
| GTGTGGGATC | 1.013 ± 0.0039 |

| Sequence | switch fluorescence ratio |
| --- | --- |
| GTGTGGGCAG | 0.973 ± 0.0026 |
| GTGTGGGGCC | 0.973 ± 0.012 |
| GTGTGGGGGA | 1.02 ± 0.04 |
| GTGTGGGTAT | 0.985 ± 0.016 |
| GTGTTAGACT | 0.9618 ± 0.0092 |
| GTGTTAGTCC | 1.05 ± 0.11 |
| GTGTTATAAT | 0.986 ± 0.021 |
| GTGTTATATA | 0.986 ± 0.013 |
| GTGTTATCAC | 0.984 ± 0.054 |
| GTGTTATCGC | 1.011 ± 0.0015 |
| GTGTTATGAT | 0.9574 ± 0.0068 |
| GTGTTATGCA | 1.01 ± 0.021 |
| GTGTTGAGAA | 0.98 ± 0.015 |
| GTGTTGATTT | 0.9625 ± 0.0065 |
| GTGTTGGACC | 0.9782 ± 0.00099 |
| GTGTTGGGTG | 1.01 ± 0.011 |
| GTGTTGTATT | 0.988 ± 0.015 |
| GTGTTTATGG | 0.984 ± 0.011 |
| GTGTTTGAAA | 0.998 ± 0.027 |

Reference: the supplement of paper PMC10126150
